In article PMC8459933:

Experiments:
[1] = target: PltB subunit of typhoid toxin (Salmonella enterica serovar Typhi); assay: cryo-EM structure
[2] = target: tagless PltB pentamer (Salmonella enterica serovar Typhi); assay: SEC

Substance | stoichiometry N [1] | stoichiometry N [2]
PltB subunit of typhoid toxin (natural protein) | 5 | –
tagless PltB pentamer (natural protein) | – | 5
